Measured values as given in patent US20230193513A1 (TWIST BIOSCIENCE, published 2023).
Residue numbers refer to the chain shown, from its start. Each block holds one binder with its values, some of them ahead of it.

Assays:
Assay in all cases: cell-based or functional assay
[1] = target: T1, glucagon-like peptide-1 receptor (GLP1R) (Homo sapiens (Human), UniProt P43220 24-463)
[2] = target: T1, glucagon-like peptide-1 receptor (GLP1R); remark: listed apart in the source
[3] = target: T1, glucagon-like peptide-1 receptor (GLP1R); remark: listed apart in the source
[4] = target: T1, glucagon-like peptide-1 receptor (GLP1R); remark: listed apart in the source

T1 sequence (P43220 24-463): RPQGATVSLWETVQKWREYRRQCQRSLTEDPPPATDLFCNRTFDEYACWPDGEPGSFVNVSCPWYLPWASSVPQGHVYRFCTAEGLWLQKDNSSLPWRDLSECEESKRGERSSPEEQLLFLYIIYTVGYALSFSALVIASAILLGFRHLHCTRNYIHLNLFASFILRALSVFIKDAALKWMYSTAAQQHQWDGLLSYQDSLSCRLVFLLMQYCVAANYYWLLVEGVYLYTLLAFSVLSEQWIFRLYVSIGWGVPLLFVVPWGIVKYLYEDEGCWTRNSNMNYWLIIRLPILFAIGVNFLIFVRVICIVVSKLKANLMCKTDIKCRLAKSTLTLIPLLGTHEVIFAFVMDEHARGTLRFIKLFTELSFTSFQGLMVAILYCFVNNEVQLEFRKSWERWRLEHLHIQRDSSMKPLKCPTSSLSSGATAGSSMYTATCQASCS

B1: GLP1R-239 (antibody, human IgG2, lambda)
heavy: QVQLVESGGGVVQPGRSLRLSCAASGFDFSNYGMHWVRQAPGKGLEWVADISYEGSNKYYADSVKGRFTISRDNSKNTLYLQMNSLRAEDTAVYYCAKHMSMQSQGLDNLAARDFINWLIQTKITDGFELSRADLVGDAFDVWGQGTLVTVSSASASTKGPSVFPLAPCSRSTSESTAALGCLVKDYFPEPVTVSWNSGALTSGVHTFPAVLQSSGLYSLSSVVTVPSSNFGTQTYTCNVDHKPSNTKVDKTVERKCCVECPPCPAPPVAGPSVFLFPPKPKDTLMISRTPEVTCVVVDVSHEDPEVQFNWYVDGVEVHNAKTKPREEQFNSTFRVVSVLTVVHQDWLNGKEYKCKVSNKGLPAPIEKTISKTKGQPREPQVYTLPPSREEMTKNQVSLTCLVKGFYPSDIAVEWESNGQPENNYKTTPPMLDSDGSFFLYSKLTVDKSRWQQGNVFSCSVMHEALHNHYTQKSLSLSPG
light: QSVLTQPPSVSAAPGQKVTISCSGSTSNIEKNYVSWYQQLPGTAPKLLIYGNDQRPSGIPDRFSGSKSGTSATLGITGLQTGDEADYYCGTWENRLSAVVFGGGTKLTVLGQPKAAPSVTLFPPSSEELQANKATLVCLISDFYPGAVTVAWKADSSPVKAGVETTTPSKQSNNKYAASSYLSLTPEQWKSHRSYSCQVTHEGSTVEKTVAPTECS
EC50 (nM) of GLP1 (7-36) in the cAMP assay after 100 nM IgG [1]: 0.0799 nM

B5: GLP1R-238 (antibody, human IgG2, lambda, V domains shown)
VH: QVQLVQSGAEVKKPGSSVKVSCKASGGSFSSHAISWVRQAPGQGLEWMGGIIPIFGAPNYAQKFQGRVTITADESTSTAYMELSSLRSEDTAVYYCARANQHFSQAGRAARVPGPSSSLGPRGYHYYGMDVWGQGTLVTVSS
VL: QSVLTQPPSVSAAPGQKVTISCSGSTSNIANNYVSWYQQLPGTAPKLLIYANNRRPSGIPDRFSGSKSGTSATLGITGLQTGDEADYYCGAWDVRLDVGVFGGGTKLTVLG
EC50 (nM) of GLP1 (7-36) in the cAMP assay after 100 nM IgG [1]: 0.0879 nM

B6: GLP1R-59-2 (antibody)
chain 1: QVQLVESGGGVVQPGRSLRLSCAASGFTFSNYGMSWVRQAPGKGLEWVAVISYDAGNKYYADSVKGRFTISRDNSKNTLYLQMNSLRAEDTAVYYCARDMYYDFETVVEGIQWYEALKAGKLGEVVPADDAFDIWGQGTLVTVSSASTKGPSVFPLAPCSRSTSESTAALGCLVKDYFPEPVTVSWNSGALTSGVHTFPAVLQSSGLYSLSSVVTVPSSNFGTQTYTCNVDHKPSNTKVDKTVERKCCVECPPCPAPPVAGPSVFLFPPKPKDTLMISRTPEVTCVVVDVSHEDPEVQFNWYVDGVEVHNAKTKPREEQFNSTFRVVSVLTVVHQDWLNGKEYKCKVSNKGLPAPIEKTISKTKGQPREPQVYTLPPSREEMTKNQVSLTCLVKGFYPSDIAVEWESNGQPENNYKTTPPMLDSDGSFFLYSKLTVDKSRWQQGNVFSCSVMHEALHNHYTQKSLSLSPGK
chain 2: HGEGTFTSDVSSYLEEQAAKEFIAWLVKGGGGGGGSGGGGSGGGGSQSALTQPASVSGSPGQSITISCTGTSNDIGTYNYVSWYQQHPGKAPKLMIYDVSGRPSGVSNRFSGSKSGNTASLTISGLQAEDEADYYCSSYTTSSTEVFGGGTKLTVLGQPKAAPSVTLFPPSSEELQANKATLVCLISDFYPGAVTVAWKADSSPVKAGVETTTPSKQSNNKYAASSYLSLTPEQWKSHRSYSCQVTHEGSTVEKTVAPTECS
EC50 (nM) of the IgG as agonist, functional assay on GLP-1R overexpressing cells [4]: 0.842 nM

B8: GLP1R-240 (antibody, human IgG2, lambda)
heavy: QVQLVQSGAEVKKPGSSVKVSCKASGGTFNNYGISWVRQAPGQGLEWMGGIIPVFGTANYAQKFQGRVTITADESTSTAYMELSSLRSEDTAVYYCARDMYYDFFGLGTFTSDVSSYLEGQAAKEFIAWLVKGVSPEVVPADDAFDIWGQGTLVTVSSASASTKGPSVFPLAPCSRSTSESTAALGCLVKDYFPEPVTVSWNSGALTSGVHTFPAVLQSSGLYSLSSVVTVPSSNFGTQTYTCNVDHKPSNTKVDKTVERKCCVECPPCPAPPVAGPSVFLFPPKPKDTLMISRTPEVTCVVVDVSHEDPEVQFNWYVDGVEVHNAKTKPREEQFNSTFRVVSVLTVVHQDWLNGKEYKCKVSNKGLPAPIEKTISKTKGQPREPQVYTLPPSREEMTKNQVSLTCLVKGFYPSDIAVEWESNGQPENNYKTTPPMLDSDGSFFLYSKLTVDKSRWQQGNVFSCSVMHEALHNHYTQKSLSLSPG
light: QSVLTQPPSVSAAPGQKVTISCSGSSSSIGNNYVSWYQQLPGTAPKLLIYANNKRPSGIPDRFSGSKSGTSATLGITGLQTGDEADYYCATWSSSPRGWVFGGGTKLTVLGQPKAAPSVTLFPPSSEELQANKATLVCLISDFYPGAVTVAWKADSSPVKAGVETTTPSKQSNNKYAASSYLSLTPEQWKSHRSYSCQVTHEGSTVEKTVAPTECS
EC50 (nM) of GLP1 (7-36) in the cAMP assay after 100 nM IgG [1]: 0.0654 nM

Next, values leading:

EC50 (nM) of GLP1 (7-36) in the cAMP assay after 100 nM IgG [1]: ~0.0653 nM
B2: GLP1R-242 (antibody, human IgG2, lambda)
heavy: QVQLVQSGAEVKKPGSSVKVSCKASGGTFSSYEISWVRQAPGQGLEWMGGIIPILGIANYAQKFQGRVTITADESTSTAYMELSSLRSEDTAVYYCAKHMSMQADTGTFTSDVSSYLEGQAAKEFIAWLVKGEFSSRADLVGDAFDVWGQGTLVTVSSASASTKGPSVFPLAPCSRSTSESTAALGCLVKDYFPEPVTVSWNSGALTSGVHTFPAVLQSSGLYSLSSVVTVPSSNFGTQTYTCNVDHKPSNTKVDKTVERKCCVECPPCPAPPVAGPSVFLFPPKPKDTLMISRTPEVTCVVVDVSHEDPEVQFNWYVDGVEVHNAKTKPREEQFNSTFRVVSVLTVVHQDWLNGKEYKCKVSNKGLPAPIEKTISKTKGQPREPQVYTLPPSREEMTKNQVSLTCLVKGFYPSDIAVEWESNGQPENNYKTTPPMLDSDGSFFLYSKLTVDKSRWQQGNVFSCSVMHEALHNHYTQKSLSLSPG
light: B1 light with T26S, K31N, Y33D, E93D, R95T, V99G

fold difference of the EC50 against no antibody [2]: 1.7 fold
EC50 (nM) of GLP1 (7-36) in the cAMP assay after 100 nM IgG [1]: 0.103 nM
EC50 (nM) of GLP1 (7-36)-induced signaling with GLP1R IgG (+100 nM) [3]: 0.103 nM
B3: GLP1R-241 (antibody, human IgG2, lambda)
heavy: QVQLVQSGAEVKKPGSSVKVSCKASGGTFSDYAISWVRQAPGQGLEWMGGIIPIFGTTNYAQKFQGRVTITADESTSTAYMELSSLRSEDTAVYYCAKHMSMQGSVAGGTFTSDVSSYLEGQAAKEFIAWLVKGGPSFIRADLVGDAFDVWGQGTLVTVSSASASTKGPSVFPLAPCSRSTSESTAALGCLVKDYFPEPVTVSWNSGALTSGVHTFPAVLQSSGLYSLSSVVTVPSSNFGTQTYTCNVDHKPSNTKVDKTVERKCCVECPPCPAPPVAGPSVFLFPPKPKDTLMISRTPEVTCVVVDVSHEDPEVQFNWYVDGVEVHNAKTKPREEQFNSTFRVVSVLTVVHQDWLNGKEYKCKVSNKGLPAPIEKTISKTKGQPREPQVYTLPPSREEMTKNQVSLTCLVKGFYPSDIAVEWESNGQPENNYKTTPPMLDSDGSFFLYSKLTVDKSRWQQGNVFSCSVMHEALHNHYTQKSLSLSPG
light: B1 light with S25I, T26S, E30G, K31N, G51D, N52D, E93D, R95I, V99A

EC50 (nM) of GLP1 (7-36) in the cAMP assay after 100 nM IgG [1]: 0.154 nM
B4: GLP1R-244 (antibody, human IgG2, lambda, V domains shown)
VH: QVQLVQSGAEVKKPGSSVKVSCKASGGTFSSYAISWVRQAPGQGLEWMGGIIPIFGTANYAQKFQGRVTITADESTSTAYMELSSLRSEDTAVYYCARANQHFAATGAGEGQAAKEFIAWLVKGRVEIGYHYYGMDVWGQGTLVTVSS
VL: QSVLTQPPSVSAAPGQKVTISCSGSSSNIGNNVVSWYQQLPGTAPKLLIYDNDKRRSGIPDRFSGSKSGTSATLGITGLQTGDEADYYCGSWDTSLSVWVFGGGTKLTVLG

EC50 (nM) of GLP1 (7-36) in the cAMP assay after 100 nM IgG [1]: 0.128 nM
B7: GLP1R-243 (antibody, human IgG2, lambda, V domains shown)
VH: QVQLVQSGAEVKKPGSSVKVSCKASGGTFSTYGINWVRQAPGQGLEWMGGIIPIFGTANYAQKFQGRVTITADESTSTAYMELSSLRSEDTAVYYCARANQHFFGKGDNLAARDFINWLIQTKITDGSNPGYHYYGMDVWGQGTLVTVSS
VL: QSVLTQPPSVSAAPGQKVTISCSGSRSNIGKNYVSWYQQLPGTAPKLLIYENNERPSGIPDRFSGSKSGTSATLGITGLQTGDEADYYCSSYTTSNTQVFGGGTKLTVLG
